Experiments:
[1] = biological target: T1, human recombinant C-reactive protein (human), P02741; assay: native MS; native capillary zone electrophoresis-MS (nCZE-MS) with surface-induced dissociation (SID); LPA-coated capillary, 20 kV; BGE 50 mM ammonium acetate pH around 6.8 (normal charge) or 40 mM AmAc with 10 mM TEAA (charge-reducing); 0.5 uM of each complex; precursors 15+/11+ SA and 23+/17+ CRP isolated; settings: remark: other sources report otherwise
T1 chain: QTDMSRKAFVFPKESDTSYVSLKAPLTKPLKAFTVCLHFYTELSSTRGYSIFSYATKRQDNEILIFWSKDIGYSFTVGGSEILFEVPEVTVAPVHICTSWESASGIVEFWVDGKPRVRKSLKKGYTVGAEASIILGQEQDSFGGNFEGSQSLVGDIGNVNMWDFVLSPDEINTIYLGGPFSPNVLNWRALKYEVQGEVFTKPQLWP

[2] = biological target: T1, human recombinant C-reactive protein …; assay: native MS; direct infusion native MS with SID; 50 mM ammonium acetate, for charge reduction 20% (v/v) 50 mM TEAA added; settings: remark: other sources report otherwise

B1: human recombinant C-reactive protein, P02741 19-224 (natural protein)
chain: QTDMSRKAFVFPKESDTSYVSLKAPLTKPLKAFTVCLHFYTELSSTRGYSIFSYATKRQDNEILIFWSKDIGYSFTVGGSEILFEVPEVTVAPVHICTSWESASGIVEFWVDGKPRVRKSLKKGYTVGAEASIILGQEQDSFGGNFEGSQSLVGDIGNVNMWDFVLSPDEINTIYLGGPFSPNVLNWRALKYEVQGEVFTKPQLWP
In the case of B1, the stoichiometry N [1] is reported as 5 and the stoichiometry N [2] is reported as 5.
